Source: patent publication US20250263448A1

Experiments:
a native host protein [1] = experiment: Kd determination, method not stated
a native host protein [2] = experiment: Kd determination, method not stated; reference wild type PmSLP-1 (SEQ ID NO 2)

Substance	Kd (a native host protein [1]) [nM]	factor by which the Kd exceeds the Kd of the native non-modified PmSLP (a native host protein [2]) [fold]
modified PmSLP-1 having SEQ. ID NO: 65 (V214D mutation)	< 2000	> 500
modified PmSLP-1 having SEQ. ID NO: 67 (E240A mutation)	< 2000	> 500
wild type PmSLP-1 protein (SEQ. ID NO: 2)	30	
